This is an account of results in the Immune Epitope Database (IEDB).

pKd: −log10 of the molar value.

The first assay concerns the target HLA-A*03:01. Nature of the assay: IEDB peptide-MHC binding, purified MHC/competitive/radioactivity; filed as Kd, often an IC50 or EC50 that approximates it; ≥ and ≤ were set here for values at or beyond the usual limits of such assays. The settings on record: source organism: Mammarenavirus brazilense.
Take MVNHSTYYV: the negative-log Kd (pKd) was 7.02.

Still in this assay, the particulars now being: source organism: Mammarenavirus guanaritoense.
In the case of LCCSLDHSK, the pKd was not above 4.47.

Staying with this assay, now noted: source organism: Mammarenavirus juninense.
As to KYIHCFRKPH, the pKd is not above 4.15.

The same assay, now with this note: source organism: Mammarenavirus machupoense.
For the sequence EWIEFTNFK, the pKd is 5.02.

On to LTMQRLLANH, for which the negative logarithm of the Kd (pKd) was 6.06.

The same assay, now with this note: source organism: SARS coronavirus Tor2.
In the case of GLVASIKNFK, the pKd is 6.20.

For the sequence GTSTDVVYR, the pKd was 7.10.

Regarding IAQSKGLYR, the negative-log Kd (pKd) was 5.41.

LLDSYFVVK: the negative logarithm of the Kd (pKd) is 7.39.

For the sequence LLFVVEVVDK, the pKd was 5.36.

As for LMNVITLVYK, the negative-log Kd (pKd) was 7.97.

Still in this assay, the particulars now being: source organism: Vaccinia virus WR.
As for CFKEASFSK, the pKd is 6.02.

On to CTDPSERVFK, for which the negative-log Kd (pKd) was 6.27.

Take DFESVTNSVY: the pKd is not above 4.48.

On to DLIVTFRERY, for which the pKd is 7.45.

As to DSPLTLLIK, the pKd is not above 4.11.

Turning to DVKVLAARLK, the negative logarithm of the Kd (pKd) was 5.94.

As for EISSNDNAK, the pKd was 4.77.

ELNIVDEIIK: the pKd is 4.93.

On to ESRDRKWLY, for which the pKd is not above 4.29.

In the case of FFRKLVLTNK, the pKd was 5.99.

FLDKSIHLTK: the pKd was 6.93.

Regarding GIFKNNDVR, the negative-log Kd (pKd) was 5.66.

In the case of HAFDAPTLY, the negative-log Kd (pKd) was 7.47.

On to HLRVLFSIFY, for which the pKd is 7.43.

Turning to IAARILSEK, the negative-log Kd (pKd) is 7.83.

On to IAPGIADIR, for which the pKd is not above 4.11.

In the case of IFPGDKTSY, the negative-log Kd (pKd) is 4.94.

With IIFLKLFKK, the negative logarithm of the Kd (pKd) is 8.06.

Take KIIAVFDSK: the pKd is 8.09.

Take KSTVKLVQR: the negative logarithm of the Kd (pKd) is 4.78.

LFIDRGSIK: the pKd is 5.76.

For LIMFEQYFIY, the pKd is 5.99.

With LLLPSTDVNK, the pKd was 7.39.

In the case of LLNSMMNRDK, the negative-log Kd (pKd) was 7.41.

As to LSARNKLFK, the negative logarithm of the Kd (pKd) was 8.66.

Turning to LSSIKSKSRR, the negative-log Kd (pKd) was not above 4.49.

As for MATMLEYVRY, the pKd is 6.23.

Consider NAISSRVDRY, for which the negative-log Kd (pKd) is not above 4.37.

For NFDYPFFRK, the negative logarithm of the Kd (pKd) is 5.04.

For the sequence NFEALEATK, the pKd was 5.38.

As to NFGTIILNK, the pKd is 5.87.

Regarding NIADAARHY, the pKd was 5.17.

For the sequence NLEMIDERK, the negative-log Kd (pKd) is not above 4.15.

With NSFIISTLNK, the pKd is 6.38.

PIFSDLLKY: the pKd is not above 4.53.

With PISELSRLR, the negative-log Kd (pKd) is not above 4.11.

The next assay has as its target HLA-A*11:01. Described as above. The settings on record: source organism: Mammarenavirus brazilense.
Turning to MVNHSTYYV, the pKd was 6.23.

The same assay, now with this note: source organism: Mammarenavirus guanaritoense.
As for LCCSLDHSK, the pKd is not above 4.42.

Still in this assay, the particulars now being: source organism: Mammarenavirus juninense.
As to KYIHCFRKPH, the pKd was not above 4.16.

Staying with this assay, now noted: source organism: Mammarenavirus machupoense.
As to EWIEFTNFK, the pKd was 5.48.

As for LTMQRLLANH, the pKd is 5.73.

The same assay, now with this note: source organism: SARS coronavirus Tor2.
As for GLVASIKNFK, the negative logarithm of the Kd (pKd) is 5.88.

In the case of GTSTDVVYR, the negative-log Kd (pKd) was 7.75.

IAQSKGLYR: the pKd is 6.65.

As to LLDSYFVVK, the pKd is 7.33.

Regarding LLFVVEVVDK, the negative-log Kd (pKd) is 5.52.

With LMNVITLVYK, the negative logarithm of the Kd (pKd) is 7.63.

The same assay, now with this note: source organism: Vaccinia virus WR.
On to CFKEASFSK, for which the negative-log Kd (pKd) was 5.86.

In the case of CTDPSERVFK, the pKd was 8.00.

In the case of DFESVTNSVY, the pKd is not above 4.60.

For the sequence DLIVTFRERY, the pKd was 7.28.

Turning to DSPLTLLIK, the negative logarithm of the Kd (pKd) is 5.20.

Consider DVKVLAARLK, for which the pKd is 5.63.

Consider EISSNDNAK, for which the pKd is 6.35.

With ELNIVDEIIK, the pKd is 4.72.

For the sequence ESRDRKWLY, the negative logarithm of the Kd (pKd) is 4.99.

Take FFRKLVLTNK: the negative-log Kd (pKd) is 6.41.

Take FLDKSIHLTK: the pKd is 6.75.

Turning to GIFKNNDVR, the pKd was 5.78.

With HAFDAPTLY, the negative logarithm of the Kd (pKd) is 6.73.

On to HLRVLFSIFY, for which the negative-log Kd (pKd) was 5.30.

For IAARILSEK, the negative-log Kd (pKd) was 7.87.

With IAPGIADIR, the pKd was not above 4.30.

IFPGDKTSY: the pKd is 4.93.

Regarding IIFLKLFKK, the negative logarithm of the Kd (pKd) was 8.35.

Consider KIIAVFDSK, for which the pKd was 8.18.

As to KSTVKLVQR, the pKd was 5.85.

With LFIDRGSIK, the pKd is 4.84.

With LIMFEQYFIY, the negative-log Kd (pKd) was 6.87.

On to LLLPSTDVNK, for which the pKd is 7.42.

For the sequence LLNSMMNRDK, the pKd was 5.75.

As for LSARNKLFK, the pKd is 9.27.

Regarding LSSIKSKSRR, the pKd is 5.69.

Turning to MATMLEYVRY, the pKd is 7.66.

Take NAISSRVDRY: the pKd is 4.74.

Regarding NFDYPFFRK, the negative-log Kd (pKd) was 6.72.

In the case of NFEALEATK, the pKd is 7.07.

Take NFGTIILNK: the negative-log Kd (pKd) was 5.96.

With NIADAARHY, the negative-log Kd (pKd) was 4.95.

As for NLEMIDERK, the pKd is 5.95.

As for NSFIISTLNK, the pKd is 9.35.

Consider PIFSDLLKY, for which the negative-log Kd (pKd) is 5.18.

For the sequence PISELSRLR, the pKd was 5.27.

Another assay has as its target HLA-A*31:01. Described as above. The settings on record: source organism: Mammarenavirus brazilense.
For the sequence MVNHSTYYV, the pKd is 7.99.

Still in this assay, the particulars now being: source organism: Mammarenavirus guanaritoense.
In the case of LCCSLDHSK, the pKd was 6.09.

Still in this assay, the particulars now being: source organism: Mammarenavirus juninense.
In the case of KYIHCFRKPH, the pKd is 7.90.

The same assay, now with this note: source organism: Mammarenavirus machupoense.
With EWIEFTNFK, the pKd is 4.81.

Consider LTMQRLLANH, for which the pKd was 5.73.

The same assay, now with this note: source organism: SARS coronavirus Tor2.
Consider GLVASIKNFK, for which the pKd was 5.12.

Regarding GTSTDVVYR, the pKd was 7.52.

Consider IAQSKGLYR, for which the pKd is 7.01.

For LLDSYFVVK, the negative-log Kd (pKd) was 5.90.

Consider LLFVVEVVDK, for which the pKd was 5.18.

Take LMNVITLVYK: the pKd was 6.13.

The same assay, now with this note: source organism: Vaccinia virus WR.
On to CFKEASFSK, for which the pKd is 7.89.

Take CTDPSERVFK: the negative-log Kd (pKd) is 5.53.

As to DFESVTNSVY, the negative logarithm of the Kd (pKd) was 4.81.

Take DLIVTFRERY: the negative-log Kd (pKd) is 6.86.

For DSPLTLLIK, the negative-log Kd (pKd) was not above 4.25.

Turning to DVKVLAARLK, the negative logarithm of the Kd (pKd) is 5.52.

On to EISSNDNAK, for which the negative-log Kd (pKd) was not above 4.25.

For the sequence ELNIVDEIIK, the pKd was not above 4.15.

For ESRDRKWLY, the negative logarithm of the Kd (pKd) is not above 4.21.

On to FFRKLVLTNK, for which the pKd is 6.70.

For the sequence FLDKSIHLTK, the negative logarithm of the Kd (pKd) was 6.98.

For the sequence GIFKNNDVR, the pKd was 4.94.
